According to article PMC9271601 (Structure (London, England : 1993), 2022):

Legend:
[1] = molecular target: H7 (SH13) HA probe (Influenza A virus A/Shanghai/02/2013 …, UniProt R4NN21, strain, biotin (biotin protein ligase, AviTag)); assay: flow cytometry on cells
[2] = molecular target: H9N2 A/Hong Kong/1073/99 hemagglutinin trimer, wild type (Influenza A virus A/Hong Kong/1073/99 …, UniProt Q9ICY5, strain); assay: BLI

B1: 1D12 B cell receptor on the donor's B cell (antibody, V domains shown)
VH: QLVQSGAEVKKPGASVKVSCKASGYTFTGYYLHWVRQAPGQGLEWMGRINPDTGGTNYAQKFQGRVSMTRDMSISTHYMELSRLTSDDTAVYYCATKRGAVTAMVYYYFYGMDVWGQGTTVTVSS
VL: DIVMTQSPLSLSVTPGEPASISCRSSHSLLHLNGYNYLDWYLQKPGQSPQLLIYLGSNRASGVPDRFSGSGSGTDFTLKISRVEAEDVGIYYCMQALRTPPGLTFGGGTKVDIK
[1]
  binding result: binds

B2: 315–19-1D12 Fab (Fab, V domains shown)
VH: B1 VH
VL: B1 VL
[2]
  binding result: binds
